Two molecules from publication PMC11549432 (Nature Communications, 2024) can be followed below.

For data set [1], the target named is ObgE (Obg of E. coli), wild type, N-terminally His6-tagged, purified (E. coli) (UniProt P42641). Put plainly: MST.
Data set [2] shares this target. Put plainly: MST. The source holds these as a separate data set.
Data set [3] shares this target. Put plainly: MST. The source holds these as a separate data set.
The data set “SEC-MALS” concerns the molecule itself. Put plainly: SEC-MALS. (Size exclusion chromatography separates by hydrodynamic size, large species first.)

Read-outs that look alike come from different tables or passages of the source.

Sequence of ObgE (Obg of E. coli), wild type, N-terminally His6-tagged, purified (E. coli) (P42641 whole entry): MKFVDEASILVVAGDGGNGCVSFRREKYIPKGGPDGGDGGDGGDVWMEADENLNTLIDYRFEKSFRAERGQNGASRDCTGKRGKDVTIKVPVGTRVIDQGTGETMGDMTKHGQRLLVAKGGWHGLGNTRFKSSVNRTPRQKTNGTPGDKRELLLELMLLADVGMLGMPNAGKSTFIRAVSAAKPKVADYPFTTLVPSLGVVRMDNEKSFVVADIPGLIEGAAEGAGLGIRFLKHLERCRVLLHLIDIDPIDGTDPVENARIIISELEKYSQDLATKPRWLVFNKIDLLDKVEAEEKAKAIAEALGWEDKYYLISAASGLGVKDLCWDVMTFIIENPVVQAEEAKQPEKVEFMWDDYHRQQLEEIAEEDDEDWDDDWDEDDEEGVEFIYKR

In the case of “LpxA wild type (UDP-N-acetylglucosamine acyltransferase), purified (from UniProt P0A722 1-262) (enzyme)”, the Kd in data set [1] was found to be 99 µM; in data set [2] it was 47 µM; in data set [3] it was 78 µM.

B1: LpxA wild type (UDP-N-acetylglucosamine acyltransferase), purified (enzyme, E. coli, UniProt P0A722 1-262, looked up)
chain: MIDKSAFVHPTAIVEEGASIGANAHIGPFCIVGPHVEIGEGTVLKSHVVVNGHTKIGRDNEIYQFASIGEVNQDLKYAGEPTRVEIGDRNRIRESVTIHRGTVQGGGLTKVGSDNLLMINAHIAHDCTVGNRCILANNATLAGHVSVDDFAIIGGMTAVHQFCIIGAHVMVGGCSGVAQDVPPYVIAQGNHATPFGVNIEGLKRRGFSREAITAIRNAYKLIYRSGKTLDEVKPEIAELAETYPEVKAFTDFFARSTRGLIR
For the molecule B1, the “stoichiometry N” value in the data set “SEC-MALS” is 3.

The term Kd denotes the equilibrium constant for the complex coming apart. High values mean weaker binding, low ones tighter binding. For orientation: stoichiometry N means a count of units in the complex or per binding partner.
